To fix the notation:
B1: Hairpin Ribozyme (parent)
chain: GUCCUCUUUCACGUGCGCGUGAAAGAGAGAAGUGAACCAGAGAAACACACGUUGUGGUAUAUUACCUGGUA

The variants in the data set derive from B1. The data set can be described thus: self-cleavage, relative activity (ratio to wild type); higher = more cleavage; co-transcriptional.
Take U7G U9C: the self-cleavage came to 0.66.

Consider U7A G54A, for which the self-cleavage worked out at 0.535.

In the case of C6U U53A, the self-cleavage was 0.912.

Take C6U A39G: the self-cleavage stood at 0.304.

Turning to U8A A11C, the self-cleavage was determined as 0.393. The value for U8A G25C was 0.155; that for U7A C16A was 0.911; that for C6U G13U was 0.6. As for U7A A71C, the self-cleavage was 1.34.

For the variant U7C C48U, the self-cleavage came out at 0.279. The value for U7A A31C was 0.0614; that for U7A A31G was 0.77. The value for U7A A31U was 0.11. The same measure for C6U U55A: 0.217; for C6U U55G: 0.375; for C6U U55C: 0.183.

With U7C A43C, the self-cleavage is 0.0702.

On to C6U U52A, for which the self-cleavage came out at 0.965. With C6U U52C, the self-cleavage was 0.773.

For the variant U7C G68C, the self-cleavage amounted to 0.302. With U8A C16A, the self-cleavage is 0.876. On to U8A C16G, for which the self-cleavage turned out to be 0.632. The value for C6U A41U was 0.977. Take U7C U67G: the self-cleavage was determined as 0.171. The same measure for C6G G29A: 0.138; for C6G G29C: 0.146. On to U8A A41G, for which the self-cleavage was determined as 0.615. Regarding U7C C16G, the self-cleavage was determined as 0.456. The value for U7C C16A was 0.913; that for U7A G57U was 0.253. The same measure for U7C A44U: 0.106. Regarding C6U U62A, the self-cleavage was determined as 0.266. The same measure for U7A G17U: 0.89.

Take C6U C16A: the self-cleavage is 0.85.

Take C6G G21A: the self-cleavage came out at 0.179. The same measure for U7A C38A: 0.28; for C6G G69C: 0.115. As to C6G G69U, the self-cleavage worked out at 0.188. For U7G G15A, the self-cleavage was determined as 0.736. The value for U7C A59C was 0.251; that for U7A A64U was 0.248. Consider U7A U33G, for which the self-cleavage worked out at 0.0989. As to U7C G69A, the self-cleavage worked out at 0.289. For the variant C6G G34A, the self-cleavage came to 1.02. As to U7G U8G, the self-cleavage was determined as 0.768.

In the case of U8A G21U, the self-cleavage was determined as 0.691.

For C6U C38U, the self-cleavage was 0.37. In the case of C6U C38G, the self-cleavage came to 0.189.

On to C6G G32U, for which the self-cleavage is 0.116. The same measure for C6G G32A: 0.106. U8A G27C: the self-cleavage was 0.186. As for C6U A49G, the self-cleavage was found to be 0.571. U7C U70C: the self-cleavage is 1.04. Turning to U7C U70A, the self-cleavage was 1.02. On to U7C G17A, for which the self-cleavage is 0.863. The same measure for U7C C65G: 0.357.

Consider U7G, for which the self-cleavage turned out to be 0.875. The value for U7C was 0.894.

With U7A, the self-cleavage is 0.92.

Take U7G C48U: the self-cleavage was found to be 0.114. Turning to U7A G68C, the self-cleavage was found to be 0.146. The value for U7A G68A was 0.28; that for U7G G17C was 0.612. For U7G G17U, the self-cleavage stood at 1.04.

U7G G17A: the self-cleavage turned out to be 0.849. The value for C6G U9C was 0.436; that for U7G C38A was 0.129; that for U7G C38G was 0.0992. The same measure for U7G G32A: 0.173. The value for U7G G32U was 0.135; that for C6U C18A was 0.885.

As for U7A U14G, the self-cleavage was found to be 0.881. For U7A U14A, the self-cleavage was determined as 1.03. In the case of U7G C16A, the self-cleavage was determined as 0.929. The value for U7A U20G was 0.705. For U7G C37U, the self-cleavage was 0.531.

Take U7G C37G: the self-cleavage is 0.239. For U7A G56U, the self-cleavage amounted to 0.128.

Consider U7A G56C, for which the self-cleavage came to 0.176.

As to U8A A61C, the self-cleavage came out at 0.165. Turning to U7C A64G, the self-cleavage was determined as 0.458. The value for U7C A64C was 0.26; that for U7A A28C was 0.471; that for U7A A28G was 1.03.

For the variant U7A A24C, the self-cleavage stood at 1.02. The same measure for U7C G40A: 0.334. The same measure for C6G G56C: 0.175. The same measure for C6G G56A: 0.149; for C6U U33C: 0.135. Take U7G C46U: the self-cleavage stood at 0.129. As to U7C A49C, the self-cleavage turned out to be 0.0316. For U7G A43C, the self-cleavage worked out at 0.138. As to U7G A49U, the self-cleavage was 0.15. The value for U7G A49C was 0.141.

With U7A A41C, the self-cleavage was determined as 1.3. Turning to U8A C12A, the self-cleavage came out at 0.606. The value for C6U G32U was 0.0839; that for C6U G32C was 0.0823. Regarding C6U G32A, the self-cleavage came out at 0.114. The same measure for U7C A11G: 0.684; for U7C A11U: 0.294.

U7G U58G: the self-cleavage turned out to be 0.645. Regarding U7G U58A, the self-cleavage turned out to be 0.655.

For C6U A61U, the self-cleavage was determined as 0.0757.

Consider C6U A61G, for which the self-cleavage came to 0.155. The value for U7G A47C was 0.234; that for U7G A47U was 0.0788. The value for C6U G69C was 0.178. The value for C6U G69U was 0.256; that for U7G G68U was 0.269. C6U A71G: the self-cleavage was 0.82. The value for C6U A71U was 0.708. The same measure for U7A A35U: 0.714; for C6G U14A: 0.634.

As to C6G U14G, the self-cleavage worked out at 0.374. The value for U7G U20A was 0.294; that for U7C G42A was 0.287. The value for U7C G42C was 0.245; that for U7C G42U was 0.205; that for U7A U52C was 0.953. For the variant U7C C12U, the self-cleavage worked out at 0.89.

Consider C6G U52C, for which the self-cleavage amounted to 0.595.

Turning to C6G G57C, the self-cleavage came to 0.124. Turning to U7A C10G, the self-cleavage was determined as 0.541. In the case of C6U A44U, the self-cleavage was 0.12.

As for C6U C12G, the self-cleavage worked out at 0.661. On to C6U C12A, for which the self-cleavage was found to be 0.656. For the variant C6U A59C, the self-cleavage worked out at 0.251. For C6U A59U, the self-cleavage turned out to be 0.127. Turning to C6U A59G, the self-cleavage is 0.266. The same measure for C6G G19C: 0.328.

With C6G G19A, the self-cleavage was 0.45. On to C6G C66U, for which the self-cleavage came to 0.173. The same measure for C6G C66A: 0.239; for U7A G42U: 0.173; for U7A G42C: 0.357. On to C6U, for which the self-cleavage came out at 0.826.

As for C6U U8A, the self-cleavage is 0.538. Turning to C6U U8G, the self-cleavage was found to be 0.431.

Take U8A A59U: the self-cleavage was 0.165. The same measure for U7C C10U: 0.9. With U7C C10A, the self-cleavage was 0.815. As for C6U G51C, the self-cleavage is 0.823. The value for U7G C10A was 0.765; that for U7G C10U was 0.64.

Consider U7G C10G, for which the self-cleavage is 0.643. The value for C6G U7G was 0.131. As for C6G U7C, the self-cleavage turned out to be 0.299.

As to U7C A45G, the self-cleavage came to 0.104. The same measure for U7C A45C: 0.136; for C6U C10U: 0.582; for C6U C10A: 0.55.

In the case of U7G U63G, the self-cleavage came out at 0.145. The same measure for U7G U63A: 0.179; for C6U A28G: 0.734; for C6U A28C: 0.428. On to U7C A28G, for which the self-cleavage came out at 1.02. The same measure for U7G A45U: 0.2; for C6G G17C: 0.365; for C6G G17A: 0.491. The same measure for U7G C65U: 0.369.

Take C6G U20A: the self-cleavage stood at 0.242. The same measure for U8A C46U: 0.0775. The value for U8A C46A was 0.133; that for C6U G19C was 0.719; that for C6U G19A was 0.793. The value for C6U A24C was 0.747.

The values above are taken from the RNAGym collection of RNA variant scans (doi:10.7554/elife.80360).
